Biological target: human C5a receptor (human) (UniProt P21730)
Assay: cell-based or functional assay

human C5a receptor (human), sequence (P21730 whole entry): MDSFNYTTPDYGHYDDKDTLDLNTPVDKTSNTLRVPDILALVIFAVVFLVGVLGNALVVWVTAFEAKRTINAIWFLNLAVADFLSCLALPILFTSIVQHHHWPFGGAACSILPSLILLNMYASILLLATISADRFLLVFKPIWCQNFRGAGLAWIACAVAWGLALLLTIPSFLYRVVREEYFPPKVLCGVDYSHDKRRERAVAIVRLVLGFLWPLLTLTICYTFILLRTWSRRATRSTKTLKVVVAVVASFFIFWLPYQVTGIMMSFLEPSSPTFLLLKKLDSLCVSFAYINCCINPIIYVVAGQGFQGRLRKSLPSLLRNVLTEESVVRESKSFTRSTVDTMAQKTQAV

half-maximal effective concentration (EC50) of chemotaxis of BA/F3/huC5aR cells	Substance
0.3 nM	mouse C5a (from UniProt P06684 679-755) (ligand)
0.1 nM	recombinant human C5a (from UniProt P01031 678-751) (ligand)

Source: US20210163946A1
